Assay [1] has as its target T1, WT-IrtABΔSID heterodimer in LMNG (Mycolicibacterium thermoresistibile …, point mutant).
T1 chain 1: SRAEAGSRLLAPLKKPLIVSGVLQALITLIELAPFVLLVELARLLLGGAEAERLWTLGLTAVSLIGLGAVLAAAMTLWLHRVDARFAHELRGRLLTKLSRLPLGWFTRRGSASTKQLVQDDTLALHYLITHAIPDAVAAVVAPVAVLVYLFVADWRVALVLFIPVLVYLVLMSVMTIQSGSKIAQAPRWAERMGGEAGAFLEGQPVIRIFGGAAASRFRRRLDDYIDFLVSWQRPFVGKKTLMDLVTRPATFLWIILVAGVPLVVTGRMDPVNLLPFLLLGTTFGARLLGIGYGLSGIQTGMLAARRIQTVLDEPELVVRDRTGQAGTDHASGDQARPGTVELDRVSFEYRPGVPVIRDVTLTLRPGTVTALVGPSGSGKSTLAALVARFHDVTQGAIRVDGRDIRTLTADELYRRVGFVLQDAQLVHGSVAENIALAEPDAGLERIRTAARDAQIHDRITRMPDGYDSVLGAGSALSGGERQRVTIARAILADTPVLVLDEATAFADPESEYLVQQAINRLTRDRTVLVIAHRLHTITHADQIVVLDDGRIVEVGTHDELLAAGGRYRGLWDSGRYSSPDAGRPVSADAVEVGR
T1 chain 2: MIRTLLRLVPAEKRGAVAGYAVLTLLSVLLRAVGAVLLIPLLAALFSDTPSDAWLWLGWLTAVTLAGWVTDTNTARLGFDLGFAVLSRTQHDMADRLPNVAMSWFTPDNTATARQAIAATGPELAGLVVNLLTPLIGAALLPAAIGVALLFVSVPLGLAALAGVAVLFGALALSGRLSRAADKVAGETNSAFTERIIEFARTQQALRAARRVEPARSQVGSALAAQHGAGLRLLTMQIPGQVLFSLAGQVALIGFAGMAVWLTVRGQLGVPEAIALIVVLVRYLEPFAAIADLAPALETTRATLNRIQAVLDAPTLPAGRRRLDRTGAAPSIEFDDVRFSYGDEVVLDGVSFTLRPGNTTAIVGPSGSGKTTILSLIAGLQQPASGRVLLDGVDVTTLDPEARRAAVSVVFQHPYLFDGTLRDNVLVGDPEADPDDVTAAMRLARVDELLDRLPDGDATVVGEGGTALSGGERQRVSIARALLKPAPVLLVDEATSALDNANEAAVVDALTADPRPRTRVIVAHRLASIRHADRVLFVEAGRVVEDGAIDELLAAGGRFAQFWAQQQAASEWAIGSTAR
Nature of the assay: cryo-EM structure.

Assay [2] deals with Full-length WT-IrtAB heterodimer reconstituted in nanodiscs (Mycolicibacterium thermoresistibile …, UniProt G7CBF5;G7CBF6). Nature of the assay: cryo-EM structure.

B1: IrtAB-specific sybody SybNL5 (VHH)
VHH: QVQLVESGGGLVQAGGSLRLSCAASGFPVSSSTMTWYRQAPGKEREWVAAINSYGYYTVYADSVKGRFTISRDNAKNTVYLQMNSLKPEDTAVYYCNVKDTGQMRESYDYWGQGTQVTVSA
Turning to B1, the binding result in assay [1] and in assay [2] was “binds” each time.

Values taken from paper PMC11779899 (Nature Communications, 2025).
